# Assay results: publication PMC11148769
# Molecular target: BA.2.12.1 S trimer (SARS-CoV-2) (UniProt P0DTC2)
# Assay: cryo-EM structure
substance,measurement,value
BA.2.12.1 S trimer (from UniProt P0DTC2 28-1208) (natural protein),stoichiometry N,3
